Laboratory results as given in the supplement of paper PMC10567573.

B1: CDC25A (parent)
chain: KPIVPTDGKRVIVVFHCEFSSERG

Variants of: B1
Assay: protein stability index of a GFP-peptide fusion (GPS, HEK-293T) (PSI 1-6); higher = more stable
Details: c terminus: a fixed tail appended
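Further: lentivirally expressed fusions sorted by FACS into six bins by GFP to DsRed ratio, PSI derived from sequencing read proportions per bin multiplied by bin number.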

Protein stability index of substitutions, site by site:
P2: A 3.03, C 3.03, L 1.83, S 1.31, F 2.37, I 3.46, N 3.3, Y 2.75, H 2.44, D 1.61, Q 2.24, V 1.82
T6: W 3.34, S 1.86, G 1.97, P 1.95, V 1.61, H 2.71, Y 2.19, Q 3.58, L 1.92, K 1.83, I 2.31, C 2.64, D 1.8, R 2.27, F 2.46, E 1.82
H16: R 3.3, I 2.85, L 3.13, D 2.06, V 2.32, T 3.6, Y 3.43, F 2.41, A 1.79, G 1.76, N 1.87, Q 1.83
R23: Q 2.61, T 3.36, W 1.55, G 1.6, H 1.84, K 2.67, P 2.35, S 2.19, V 3.12, F 3.05, Y 2.99
F19: T 2.1, R 2.22, Y 1.89, Q 2.3, H 1.86, D 2.41, K 2.18, I 1.65, L 2.32, M 2.05, C 1.98, E 2.47
S20: V 1.7, P 1.92, C 2.23, T 2.79, H 2.8, W 2.1, N 1.95, R 3.53, E 1.12, A 1.96, Q 1.71, I 3.13, F 3.29
K9: C 2.67, E 2.58, F 2.2, P 1.94, D 2.19, H 2.19, V 2.77, S 2.4, M 2.36, W 2.4, N 2.31, R 2.92, A 1.56
G24: L 1.85, Y 2.74, T 3.03, E 1.93, R 3.92, M 3.17, C 2.7, P 2.66, I 4.86, V 2.56, D 2.09, S 2.92, H 3.36, W 3.51, N 2.29, A 1.29
S21: N 2.46, C 3.38, T 3.26, D 1.28, F 1.97, E 1.56, V 2.61, P 4.03, L 3.4, K 1.9, H 2.27
G8: E 2.13, H 3.19, M 3.53, P 1.52, K 1.82, D 1.33, F 2.28, I 2.89, V 5.1, N 1.95, L 3.42, T 2.3, R 2.3, Y 2.16
V13: F 2.33, S 3.36, C 1.79, Y 2.31, P 3.21, T 2.38, L 2.97, I 3.19, G 2.8, R 2.91, K 3.02, M 1.16, E 3.43, N 3.57, H 2.08, Q 3.24
R10: S 2.33, G 2.54, V 2.76, P 3.09, A 1.93, C 3.54, M 2.6, E 2.96, W 4.02, D 1.77, K 2.51, L 3.23, T 2.54, I 1.45, Q 2.14, N 2.39
C17: H 1.38, N 2.52, E 2.57, D 2.77, F 1.93, S 1.85, V 2.73, Y 2.9, L 2.12, W 2.91, R 1.95, P 2.64, T 1.86, A 2.24, Q 2.32
K1: H 2.4, R 2.65, C 3.33, M 1.86, Q 2.15, N 1.62, S 2.04, D 2.13, P 2.25, W 2.24, F 1.32, T 1.98, I 2.57, V 3.69, A 1.37, Y 1.55
V4: Y 2.58, L 2.33, T 1.42, M 1.92, I 2.57, A 2.12, N 3.39, P 2.75, F 2.24, Q 2.44, C 2.14, E 1.48, H 2.17, S 2.49, G 2.33
I3: K 2.47, H 1.89, D 1.76, M 2.32, A 3.14, V 2.43, S 1.1, R 2.56, G 1.7, F 2.09
F15: G 2.98, Y 1.72, N 3.98, A 2.47, K 3.79, D 4.34, T 2.92, R 3.06, S 3.47, C 1.68, W 1.55, L 3.28, P 4.14, H 3.19, V 2.84
E18: F 3.14, S 3.26, M 2.38, V 3.1, G 2.55, A 2.51, C 2.17, K 4, D 1.79, Q 3.42, Y 2.26, I 2.28, N 2.34
E22: Y 3.49, R 2.68, Q 1.96, N 2.29, W 2.99, L 3.4, V 2.03, G 1.99, M 2.29, C 2.52, H 2.7, K 1.99, D 2.61, I 2.65, S 3.61, T 2.75, F 3.5
D7: V 2.3, P 3.14, K 1.8, R 2, T 3.31, L 3.2, Q 2.76, H 3.21, E 2.8, S 1.84, A 2.21, F 2.17, W 4.57
V11: T 1.76, G 2.21, L 2.82, D 2.65, A 1.93, N 2.14, M 2.06, E 3.05, Y 2.59, I 3.01, H 1.58, W 3.24, R 1.68, Q 2.25, F 2.11
I12: T 2, E 2.84, A 2.11, S 1.82, V 1.63, L 3.39, G 3.13, W 2.49, F 3.2, M 2.24, R 1.94, C 2.1, K 3.13
V14: N 2.35, G 2.69, T 1.72, D 3.36, W 2.09, A 1.92, F 1.83, S 2.52, C 2.57, M 1.9, H 2.54, Y 2.6, L 2.17, P 3.44, K 2.43, R 2.09
P5: Q 2.27, H 1.5, K 2.13, V 2.29, I 2.42, S 2.29, Y 2.66, N 4.39, G 1.69, M 2.45, E 2.33, D 1.33, R 1.84, T 1.55
